{"source": "paper doi:10.1101/2023.06.10.544460", "about": "(bioRxiv, 2023)", "proteins": {"B1": {"name": "HMPV nucleoprotein N, full length, strain NL1-00 (A1), RNA-bound oligomers (N-RNA) (natural protein, UniProt Q91F57 1-394, looked up)", "chain": "MSLQGIHLSDLSYKHAILKESQYTIKRDVGTTTAVTPSSLQQEITLLCGEILYAKHADYKYAAEIGIQYISTALGSERVQQILRNSGSEVQVVLTRTYSLGKIKNNKGEDLQMLDIHGVEKSWVEEIDKEARKTMATLLKESSGNIPQNQRPSAPDTPIILLCVGALIFTKLASTIEVGLETTVRRANRVLSDALKRYPRMDIPKIARSFYDLFEQKVYHRSLFIEYGKALGSSSTGSKAESLFVNIFMQAYGAGQTMLRWGVIARSSNNIMLGHVSVQAELKQVTEVYDLVREMGPESGLLHLRQSPKAGLLSLANCPNFASVVLGNASGLGIIGMYRGRVPNTELFSAAESYAKSLKESNKINFSSLGLTDEEKEAAEHFLNVSDDSQNDYE"}}, "molecular_target": "the molecule itself", "test": "cryo-EM structure", "note": "“And” between values parts separate entries of the source, which are not always exact repeats. Identical values can stand only once."}
{"protein": "B1", "values": [{"measurement": "stoichiometry N", "value": "10 protomers and 11 protomers and 12 protomers and ≥ 12 protomers"}]}
